Where two headings read alike, the source gives them in different places.
B1: PgpB (Escherichia coli K-12) (protein)
chain: RSIARRTAVGAALLLVMPVAVWISGWRWQPGEQSWLLKAAFWVTETVTQPWGVITHLILFGWFLWCLRFRIKAAFVLFAILAAAILVGQGVKSWIKDKVQEPRPFVIWLEKTHHIPVDEFYTLKRAERGNLVKEQLAEEKNIPQYLRSHWQKETGFAFPSGHTMFAASWALLAVGLLWPRRRTLTIAILLVWATGVMGSRLLLGMHWPRDLVVATLISWALVAVATWLAQRICGPLTPPAEENREIAQREQES
notes: N-terminal His-tagged PgpB purified in DDM
B2: PgpC (Escherichia coli K-12) (protein)
chain: MATHERRVVFFDLDGTLHQQDMFGSFLRYLLRRQPLNALLVLPLLPIIAIALLIKGRAARWPMSLLLWGCTFGHSEARLQTLQADFVRWFRDNVTAFPLVQERLTTYLLSSDADIWLITGSPQPLVEAVYFDTPWLPRVNLIASQIQRGYGGWVLTMRCLGHEKVAQLERKIGTPLRLYSGYSDSNQDNPLLYFCQHRWRVTPRGELQQLE
notes: N-terminal His-tagged PgpC purified in DDM
B3: PgpA (Escherichia coli K-12) (protein)
chain: MTILPRHKDVAKSRLKMSNPWHLLAVGFGSGLSPIVPGTMGSLAAIPFWYLMTFLPWQLYSLVVMLGICIGVYLCHQTAKDMGVHDHGSIVWDEFIGMWITLMALPTNDWQWVAAGFVIFRILDMWKPWPIRWFDRNVHGGMGIMIDDIVAGVISAGILYFIGHHWPLGILS
notes: N-terminal His-tagged PgpA purified in DDM

Tests used:
Assay type in all cases: biochemical, Escherichia coli
[1] = substrate: CCCCCCCC/C=C\CCCCCCCC(=O)OC[C@@H](O)COP(=O)(O)O; assay: phosphate release kinetics, surface dilution model (Km)
[2] = substrate: O=CC(O)COP(=O)(O)O; assay: phosphate release kinetics, Michaelis-Menten (Km); details: Mg2+
[3] = substrate: O=P(O)(O)OCC(O)CO; assay: phosphate release kinetics, Michaelis-Menten (Km); details: Mg2+

Protein	Km [1]	Km ([1]; Mg2+)	Km [2]	Km [3]
B1	179.6 µM			
B2		190.2 µM		
B3		83.8 µM	765 µM	327 µM
